Data: patent US20220089730A1 (published 2022)
Positions count from the first letter of the chain named.

B1: IAB2M γ2 EH2 (other)
chain: DIVMTQSPSSLSASVGDRVTITCKASQDVGTAVDWYQQKPGKAPKLLIYWASTRHTGVPDRFTGSGSGTDFTLTISSLQPEDFADYFCQQYNSYPLTFGGGTKLEIKGSTSGGGSGGGSGGGGSSEVQLVQSGAEVKKPGASVKISCKTSGYTFTEYTIHWVKQASGKGLEWIGNINPNNGGTTYNQKFEDRATLTVDKSTSTAYMELSSLRSEDTAVYYCAAGWNFDYWGQGTTVTVSSERKSCVECPPCPGGGSSGGGSGGQPREPQVYTLPPSREEMTKNQVSLTCLVKGFYPSDIAVEWESNGQPENNYKTTPPMLDSDGSFFLYSKLTVDKSRWQQGNVFSCSVMHEALHNHYTQKSLSLSPGK
B2: IAB2M γ1 EH2 (other)
chain: DIVMTQSPSSLSASVGDRVTITCKASQDVGTAVDWYQQKPGKAPKLLIYWASTRHTGVPDRFTGSGSGTDFTLTISSLQPEDFADYFCQQYNSYPLTFGGGTKLEIKGSTSGGGSGGGSGGGGSSEVQLVQSGAEVKKPGASVKISCKTSGYTFTEYTIHWVKQASGKGLEWIGNINPNNGGTTYNQKFEDRATLTVDKSTSTAYMELSSLRSEDTAVYYCAAGWNFDYWGQGTTVTVSSEPKSSDKTHTCPPCGGGSSGGGSGGQPREPQVYTLPPSRDELTKNQVSLTCLVKGFYPSDIAVEWESNGQPENNYKTTPPVLDSDGSFFLYSKLTVDKSRWQQGNVFSCSVMHEALHNHYTQKSLSLSPGK
B3: IAB2M γ1 EH1 (other)
chain: B2 chain with S245C
B4: IAB2M γ1 EH3 (other)
chain: DIVMTQSPSSLSASVGDRVTITCKASQDVGTAVDWYQQKPGKAPKLLIYWASTRHTGVPDRFTGSGSGTDFTLTISSLQPEDFADYFCQQYNSYPLTFGGGTKLEIKGSTSGGGSGGGSGGGGSSEVQLVQSGAEVKKPGASVKISCKTSGYTFTEYTIHWVKQASGKGLEWIGNINPNNGGTTYNQKFEDRATLTVDKSTSTAYMELSSLRSEDTAVYYCAAGWNFDYWGQGTTVTVSSEPKSSDKTHTCPPCPPCGGGSSGGGSGGQPREPQVYTLPPSRDELTKNQVSLTCLVKGFYPSDIAVEWESNGQPENNYKTTPPVLDSDGSFFLYSKLTVDKSRWQQGNVFSCSVMHEALHNHYTQKSLSLSPGK
B5: IAB2M γ2 EH1 (other)
chain: B1 chain with S244C
B6: IAB2M γ3/γ1 EH8 (other)
chain: DIVMTQSPSSLSASVGDRVTITCKASQDVGTAVDWYQQKPGKAPKLLIYWASTRHTGVPDRFTGSGSGTDFTLTISSLQPEDFADYFCQQYNSYPLTFGGGTKLEIKGSTSGGGSGGGSGGGGSSEVQLVQSGAEVKKPGASVKISCKTSGYTFTEYTIHWVKQASGKGLEWIGNINPNNGGTTYNQKFEDRATLTVDKSTSTAYMELSSLRSEDTAVYYCAAGWNFDYWGQGTTVTVSSELKTPLGDTTHTCPPCPPCPPCGGGSSGGGSGGQPREPQVYTLPPSRDELTKNQVSLTCLVKGFYPSDIAVEWESNGQPENNYKTTPPVLDSDGSFFLYSKLTVDKSRWQQGNVFSCSVMHEALHNHYTQKSLSLSPGK
B7: IAB2M γ3/γ1 EH7 (other)
chain: DIVMTQSPSSLSASVGDRVTITCKASQDVGTAVDWYQQKPGKAPKLLIYWASTRHTGVPDRFTGSGSGTDFTLTISSLQPEDFADYFCQQYNSYPLTFGGGTKLEIKGSTSGGGSGGGSGGGGSSEVQLVQSGAEVKKPGASVKISCKTSGYTFTEYTIHWVKQASGKGLEWIGNINPNNGGTTYNQKFEDRATLTVDKSTSTAYMELSSLRSEDTAVYYCAAGWNFDYWGQGTTVTVSSELKTPLGDTTHTCPPCPPCGGGSSGGGSGGQPREPQVYTLPPSRDELTKNQVSLTCLVKGFYPSDIAVEWESNGQPENNYKTTPPVLDSDGSFFLYSKLTVDKSRWQQGNVFSCSVMHEALHNHYTQKSLSLSPGK
B8: IAB2M γ3/γ1 EH6 (other)
chain: B7 chain with P254V, P255E
B9: IAB2M γ1 EH5 (other)
chain: DIVMTQSPSSLSASVGDRVTITCKASQDVGTAVDWYQQKPGKAPKLLIYWASTRHTGVPDRFTGSGSGTDFTLTISSLQPEDFADYFCQQYNSYPLTFGGGTKLEIKGSTSGGGSGGGSGGGGSSEVQLVQSGAEVKKPGASVKISCKTSGYTFTEYTIHWVKQASGKGLEWIGNINPNNGGTTYNQKFEDRATLTVDKSTSTAYMELSSLRSEDTAVYYCAAGWNFDYWGQGTTVTVSSEPKSSDKTHTCPPCPPCPPCGGGSSGGGSGGQPREPQVYTLPPSRDELTKNQVSLTCLVKGFYPSDIAVEWESNGQPENNYKTTPPVLDSDGSFFLYSKLTVDKSRWQQGNVFSCSVMHEALHNHYTQKSLSLSPGK
B10: IAB22M γ2 EH2 (other)
chain: DVQITQSPSSLSASVGDRVTITCRTSRSISQYLAWYQQKPGKVPKLLIYSGSTLQSGVPSRFSGSGSGTDFTLTISSLQPEDVATYYCQQHNENPLTFGGGTKVEIKGSTSGGGSGGGSGGGGSSEVQLVESGGGLVQPGGSLRLSCAASGFNIKDTYIHFVRQAPGKGLEWIGRIDPANDNTLYASKFQGKATISADTSKNTAYLQMNSLRAEDTAVYYCGRGYGYYVFDHWGQGTLVTVSSERKSCVECPPCPGGGSSGGGSGGQPREPQVYTLPPSREEMTKNQVSLTCLVKGFYPSDIAVEWESNGQPENNYKTTPPMLDSDGSFFLYSKLTVDKSRWQQGNVFSCSVMHEALHNHYTQKSLSLSPGK
B11: IAB22M γ1 EH5 (other)
chain: DVQITQSPSSLSASVGDRVTITCRTSRSISQYLAWYQQKPGKVPKLLIYSGSTLQSGVPSRFSGSGSGTDFTLTISSLQPEDVATYYCQQHNENPLTFGGGTKVEIKGSTSGGGSGGGSGGGGSSEVQLVESGGGLVQPGGSLRLSCAASGFNIKDTYIHFVRQAPGKGLEWIGRIDPANDNTLYASKFQGKATISADTSKNTAYLQMNSLRAEDTAVYYCGRGYGYYVFDHWGQGTLVTVSSEPKSSDKTHTCPPCPPCPPCGGGSSGGGSGGQPREPQVYTLPPSRDELTKNQVSLTCLVKGFYPSDIAVEWESNGQPENNYKTTPPVLDSDGSFFLYSKLTVDKSRWQQGNVFSCSVMHEALHNHYTQKSLSLSPGK
B12: IAB22M γ1 EH3 (other)
chain: DVQITQSPSSLSASVGDRVTITCRTSRSISQYLAWYQQKPGKVPKLLIYSGSTLQSGVPSRFSGSGSGTDFTLTISSLQPEDVATYYCQQHNENPLTFGGGTKVEIKGSTSGGGSGGGSGGGGSSEVQLVESGGGLVQPGGSLRLSCAASGFNIKDTYIHFVRQAPGKGLEWIGRIDPANDNTLYASKFQGKATISADTSKNTAYLQMNSLRAEDTAVYYCGRGYGYYVFDHWGQGTLVTVSSEPKSSDKTHTCPPCPPCGGGSSGGGSGGQPREPQVYTLPPSRDELTKNQVSLTCLVKGFYPSDIAVEWESNGQPENNYKTTPPVLDSDGSFFLYSKLTVDKSRWQQGNVFSCSVMHEALHNHYTQKSLSLSPGK
B13: IAB22M γ3/γ1 EH8 (other)
chain: DVQITQSPSSLSASVGDRVTITCRTSRSISQYLAWYQQKPGKVPKLLIYSGSTLQSGVPSRFSGSGSGTDFTLTISSLQPEDVATYYCQQHNENPLTFGGGTKVEIKGSTSGGGSGGGSGGGGSSEVQLVESGGGLVQPGGSLRLSCAASGFNIKDTYIHFVRQAPGKGLEWIGRIDPANDNTLYASKFQGKATISADTSKNTAYLQMNSLRAEDTAVYYCGRGYGYYVFDHWGQGTLVTVSSELKTPLGDTTHTCPPCPPCPPCGGGSSGGGSGGQPREPQVYTLPPSRDELTKNQVSLTCLVKGFYPSDIAVEWESNGQPENNYKTTPPVLDSDGSFFLYSKLTVDKSRWQQGNVFSCSVMHEALHNHYTQKSLSLSPGK
B14: IAB22M γ3/γ1 EH7 (other)
chain: DVQITQSPSSLSASVGDRVTITCRTSRSISQYLAWYQQKPGKVPKLLIYSGSTLQSGVPSRFSGSGSGTDFTLTISSLQPEDVATYYCQQHNENPLTFGGGTKVEIKGSTSGGGSGGGSGGGGSSEVQLVESGGGLVQPGGSLRLSCAASGFNIKDTYIHFVRQAPGKGLEWIGRIDPANDNTLYASKFQGKATISADTSKNTAYLQMNSLRAEDTAVYYCGRGYGYYVFDHWGQGTLVTVSSELKTPLGDTTHTCPPCPPCGGGSSGGGSGGQPREPQVYTLPPSRDELTKNQVSLTCLVKGFYPSDIAVEWESNGQPENNYKTTPPVLDSDGSFFLYSKLTVDKSRWQQGNVFSCSVMHEALHNHYTQKSLSLSPGK
B15: IAB22M γ3/γ1 EH6 (other)
chain: B14 chain with P257V, P258E

target: T1, PSMA (Prostate-Specific Membrane Antigen), glutamate carboxypeptidase 2 (UniProt Q04609 1-750); assay: FACS; table prints γ2 EH2, curve legend prints γ1 EH1

EC50 [nM]	Binder
0.176	B1

target: T1, PSMA (Prostate-Specific Membrane …); assay: FACS; C4-2 XCL cells

EC50 [nM]	Binder
0.26	B2
0.4	B3
0.38	B4
0.27	B5

target: T1, PSMA (Prostate-Specific Membrane …); assay: FACS

EC50 [nM]	Binder
0.227	B6
0.186	B7
0.188	B8
0.162	B4
0.183	B9

target: T1, PSMA (Prostate-Specific Membrane …); assay: FACS; LNCaP-AR cells

EC50 [nM]	Binder
0.06	B2
0.05	B3
0.05	B1

target: CD8 (cell surface CD8 on HPB-ALL cells) (UniProt P01732 22-235; A6NJW9 19-210); assay: FACS
Sequence (P01732 22-235, chain 1 of 2): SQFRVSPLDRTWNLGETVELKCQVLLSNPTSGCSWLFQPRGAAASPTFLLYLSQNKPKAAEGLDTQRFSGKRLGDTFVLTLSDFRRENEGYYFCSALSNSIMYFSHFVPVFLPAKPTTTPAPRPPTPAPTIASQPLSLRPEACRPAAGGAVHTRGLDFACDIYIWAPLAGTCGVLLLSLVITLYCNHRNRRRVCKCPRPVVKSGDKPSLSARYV
Sequence (A6NJW9 19-210 C51R/T71A, chain 2 of 2): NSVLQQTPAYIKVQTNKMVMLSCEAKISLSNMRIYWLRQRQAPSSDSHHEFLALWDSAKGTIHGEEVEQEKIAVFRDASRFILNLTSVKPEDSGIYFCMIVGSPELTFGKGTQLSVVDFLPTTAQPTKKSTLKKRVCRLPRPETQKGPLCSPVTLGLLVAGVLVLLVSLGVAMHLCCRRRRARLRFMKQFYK

EC50 [nM]	Binder
0.156	B10
0.146	B11
0.37	B12
0.163	B13
0.17	B14
0.188	B15
